Drawing on PMC2723105, “DNA binding by Corynebacterium glutamicum TetR-type transcription regulator AmtR”, this text covers binding and Kd for two substances.

Residue numbers refer to the chain shown, from its start.

The Kd is the concentration at which binding is half-saturated.

What all share (experiment): EMSA
Details in all cases: EMSA: DIG gel shift kit (Roche) conditions, 0.04 ng DNA, native 6% PAGE in 0.5x TBE; SPR: HBS-EP running buffer, 25 °C, BIAcoreX, nonspecific 30-mer DNA in the …
(In general: A gel shift assay detects complexes by their altered migration in electrophoresis.)

Data set [1] concerns the target T1, AmtR-MBP Y58A Y58A (Corynebacterium glutamicum ATCC13032) (UniProt H7C699).
T1 sequence: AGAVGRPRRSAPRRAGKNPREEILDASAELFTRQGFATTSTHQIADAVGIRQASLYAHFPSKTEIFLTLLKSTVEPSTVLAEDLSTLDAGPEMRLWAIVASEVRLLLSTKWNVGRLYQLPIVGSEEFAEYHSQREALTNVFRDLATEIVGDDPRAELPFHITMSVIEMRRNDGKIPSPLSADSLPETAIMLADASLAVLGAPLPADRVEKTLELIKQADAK

In data set [2] the target is T2, AmtR-MBP S55A S55A (Corynebacterium glutamicum ATCC13032) (UniProt H7C699).
T2 sequence: T1 sequence with S54A, A57Y

For data set [3], the target named is T3, AmtR-MBP Y57A Y57A (Corynebacterium glutamicum ATCC13032) (UniProt H7C699).
T3 sequence: T1 sequence with Y56A, A57Y

For data set [4], the target named is T4, AmtR-MBP T42A T42A (Corynebacterium glutamicum ATCC13032) (UniProt H7C699).
T4 sequence: T1 sequence with T41A, A57Y

Data set [5] has as its system AmtR-MBP E30A (Corynebacterium glutamicum ATCC13032).
The test system of data set [6] is AmtR-MBP L71A (Corynebacterium glutamicum ATCC13032).
In data set [7] the test system is AmtR-MBP T33A (Corynebacterium glutamicum ATCC13032).

With “GCTGGGCTAGAAACCCGATAAGCGAGAACCACCTGTCGGATGTTGTCTGGCAGGTGGTTTTCTTTTGCCTGGGTACCACCAAAAAGCAGCTGTGATGCACTTAACAATTCATTAAATTACCTGTTAAACTATAGAAAATATCCAAAACCCTCCAAAACCTATTCTATAGATCTATTGAAATTAGTTTCTGTAGGTCTATAGTTAGAGCTGGTTCAAGGGGTGTCAATCCCAAAAGGCACTCCTTGAACTCATGAAAAAGCTTGACAAAACTTCAACGTCAAAGGAGGTCATCCACGC (double strand) [amtB promoter PCR fragment]”, the values for the binding entry in data set [1], in data set [3] and in data set [4] were “binds more weakly”, “binds more weakly” and “binds”, respectively. The Kd in data set [2] worked out at 71 µM.
On to amtB promoter PCR fragment, for which the Kd amounted to 10 µM in data set [5], 71 µM in data set [2], 20 µM in data set [6] and 2.2 µM in data set [7].
